Reference: patent US20140120115A1 (MorphoSys, published 2014)

B1: MOR014093 (antibody, V domains shown)
VH: QVQLLESGGGLVQPGGSLRLSCAASGFTFSDYYMDWVRQAPGKGLEWVSAISSSGSTTYYADSVKGRFTISRDNSKNTLYLQMNSLRAEDTAVYYCARGNLFGSTYVMGFDHWGQGTLVTVSS
VL: DIELTQPPSVSVSPGQTASITCSGDSIGSTHVSWYQQKPGQAPVLVIYRKSNRPSGIPERFSGSNSGNTATLTISGTQAEDEADYYCSSWDSESVVFGGGTKLTVLG
notes: also called antibody A
B2: MOR014116 (antibody, V domains shown)
VH: QVQLVQSGAEVKKPGSSVKVSCKASGGTFSDYAISWVRQAPGQGLEWMGLIIPLFGTANYAQKFQGRVTITADESTSTAYMELSSLRSEDTAVYYCARSPAYQLVTPYYYVSDWFDVWGQGTLVTVSS
VL: DIVLTQPPSVSGAPGQRVTISCSGSSSNIGSNYVSWYQQLPGTAPKLLIYDNSERPSGVPDRFSGSKSGTSASLAITGLQAEDEADYYCQSWDASPWSYVFGGGTKLTVLG
notes: also called antibody B
B3: MOR014138 (antibody, V domains shown)
VH: QVQLVQSGAEVKKPGSSVKVSCKASGGTFTSYAIHWVRQAPGQGLEWMGRIIPHFGTAYYAQKFQGRVTITADESTSTAYMELSSLRSEDTAVYYCARVQVYMSVLGWGYENYMDVWGQGTLVTVSS
VL: DIVLTQSPATLSLSPGERATLSCRASQSVSAFQLGWYQQKPGQAPRLLIYGASTRATGIPARFSGSGSGTDFTLTISSLEPEDFAVYYCQQYIQYPYTFGQGTKVEIKR
notes: also called antibody C

What was measured:
[1] = target: T1, recombinant human macrophage migration inhibitory factor (MIF) (human, UniProt P14174 2-115, biotinylated (Amersham ECL Protein Biotinylation kit; sites not stated)); test: ELISA, IgG titrated (0-166 nM) on biotinylated human MIF on neutravidin plate
T1 construct: also called human MIF; biotinylated MIF
Method: (§1) For further characterization, the EC₅₀ concentration for each of the cross-reactive antibodies to MIF and to D-DT was determined based on the ELISA setting according to Example 1. Concentrations of each of the individual antibodies were titrated and 8 distinct concentrations from 0 nM to 166 nM were applied side by side on a plate coated with MIF and a plate coated with D-DT. Biotinylated recombinant human MIF or D-DT with a concentration of 1 μg/ml were coated on reacti-bind neutravidin coated black 384-well plates (Thermo Scientifc) for 1, 5 h at room temperature. Reacti-bind neutravidin plates had been pretreated with PBS/5% skim milk powder before. After washing with PBST purified IgGs were added to the MIF or D-DT coated plate respectively and incubated for 2 hours at room temperature. After subsequent washing antigen-specific bound IgG was detected via AP-Goat-anti-human IgG Fc-γ fragment specific (Fa Jackson ImmunoResearch) secondary antibody and application of Attophos (Fa ROCHE) according to the manufacturer's manual. Fluorescence intensity was measured via Tecan Reader GeniosPro and fluorescence intensity for the individual clones was plotted in a typical antibody titration curve. EC₅₀ values were determined with the program GraphPad Prism using non-linear regression analysis.

[2] = target: T1, recombinant human macrophage migration …; test: ELISA, IgG at 6.25 nM on biotinylated human MIF on neutravidin plate
Method: (§2) Cross-reactivity of antibodies to human MIF and human D-DT was determined by ELISA. Biotinylated recombinant human MIF or D-DT with a concentration of 1 μg/ml were coated on reacti-bind neutravidin coated black 384-well plates (Thermo Scientifc) for 1, 5 h at room temperature. Reacti-bind neutravidin plates had been pretreated with PBS/5% skim milk powder before. After washing with PBST purified IgGs were applied in a concentration of 6.25 nM on a MIF or a D-DT coated plate respectively and incubated for 2 hours at room temperature. After subsequent washing antigen-specific bound IgG was detected via AP-Goat-anti-human IgG Fc-γ fragment specific (Fa Jackson ImmunoResearch) secondary antibody and application of Attophos (Fa ROCHE) according to the manufacturer's manual. Fluorescence intensity was measured via Tecan Reader GeniosPro and fluorescence intensity for the individual clones was compared to control antibody.

[3] = target: T2, recombinant human D-dopachrome tautomerase (D-DT) (human, UniProt P30046 2-118, biotinylated (Amersham ECL Protein Biotinylation kit; sites not stated)); test: ELISA, antibody at 6.25 nM on recombinant D-DT (FIG. 2)
T2 construct: Used biotinylated on neutravidin plates; also called human D-DT
Method: as §2

[4] = target: T2, recombinant human D-dopachrome …; test: ELISA, IgG at 6.25 nM on biotinylated human D-DT on neutravidin plate
Method: as §2

[5] = target: T2, recombinant human D-dopachrome …; test: ELISA, IgG titrated (0-166 nM) on biotinylated human D-DT on neutravidin plate
Method: as §1

[6] = target: T1, recombinant human macrophage migration …; test: ELISA, antibody at 6.25 nM on recombinant MIF (FIG. 2)
Method: as §2

[7] = target: T2, recombinant human D-dopachrome …; test: ELISA; upper end of the group's range, tied to A on D-DT by Table 2
Method: as §1

[8] = target: T1, recombinant human macrophage migration …; test: ELISA; lower end of the group's range, tied to C on MIF by Table 2
Method: as §1

T2 sequence (P30046 2-118 limits assumed): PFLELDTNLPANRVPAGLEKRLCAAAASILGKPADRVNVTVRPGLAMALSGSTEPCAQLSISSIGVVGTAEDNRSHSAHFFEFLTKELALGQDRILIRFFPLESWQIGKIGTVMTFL
T1 sequence (P14174 2-115 limits assumed): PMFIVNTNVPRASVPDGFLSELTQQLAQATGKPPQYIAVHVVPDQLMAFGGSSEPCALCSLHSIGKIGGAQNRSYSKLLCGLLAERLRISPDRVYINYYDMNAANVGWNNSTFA

| Binder | EC50 [1] | fold signal intensity compared to the negative control [2] | fold fluorescence intensity above background [3] | fold signal intensity compared to the negative control [4] | EC50 [5] | fold fluorescence intensity above background [6] | EC50 [7] | EC50 [8] |
| --- | --- | --- | --- | --- | --- | --- | --- | --- |
| B1 | 1.14 nM | ≥ 5 fold | > 5 fold | ≥ 5 fold | 21.2 nM | > 5 fold | 22 nM |  |
| B2 | 0.486 nM | ≥ 5 fold | > 5 fold | ≥ 5 fold | 8.47 nM | > 5 fold |  |  |
| B3 | 0.36 nM | ≥ 5 fold | > 5 fold | ≥ 5 fold | 2.29 nM | > 5 fold |  | 0.3 nM |
